Experimental data from patent publication US20150299296A1 (Chugai, published 2015).

What was measured:
Assay in all cases: SPR; IL6R-BF648/IL6R-L=100
[1] = molecular target: T1, human FcγRIIa type H extracellular domain with C-terminal His tag (human, UniProt P12318 34-217)
T1 construct: extracellular domain; also called FcgRIIaH; FcγRIIa H
T1 sequence (looked up): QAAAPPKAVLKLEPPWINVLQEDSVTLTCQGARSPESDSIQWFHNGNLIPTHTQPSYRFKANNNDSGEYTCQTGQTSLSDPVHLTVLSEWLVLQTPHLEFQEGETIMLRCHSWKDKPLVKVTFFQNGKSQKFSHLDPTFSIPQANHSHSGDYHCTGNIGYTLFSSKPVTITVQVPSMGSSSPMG
Description: (§1) IL6R-L was utilized as the common antibody L chain for all of the antibodies, the antibodies were expressed and purified according to the method of Reference Example 1, and binding to each of the FcγRs (FcγRIa, FcγRIIa type H, FcγRIIa type R, FcγRIIb, and FcγRIIIa type V) was comprehensively evaluated by the method of Reference Example 2.
(§2) Relative binding activities were calculated for the results of analyzing interactions with the respective FcγRs according to the following method.

[2] = molecular target: T2, human FcγRIa extracellular domain with C-terminal His tag (human, UniProt P12314 16-292)
T2 construct: Whole entry named; also called FcgRIa; FcgIa
Description: as §1, §2

[3] = molecular target: T3, human FcγRIIb extracellular domain with C-terminal His tag (human, UniProt P31994 43-217)
T3 construct: extracellular domain; For crystals it was expressed with kifunensine and trimmed with Endo F1; also called FcgRIIb; FcγRIIb extracellular region
T3 sequence (looked up): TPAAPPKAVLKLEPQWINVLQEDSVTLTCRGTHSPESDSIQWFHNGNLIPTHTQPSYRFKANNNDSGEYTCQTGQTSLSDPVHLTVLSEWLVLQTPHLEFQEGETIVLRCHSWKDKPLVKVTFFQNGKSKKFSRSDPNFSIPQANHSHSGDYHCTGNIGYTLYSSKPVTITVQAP
Description: as §1, §2

T2 sequence (P12314 16-292): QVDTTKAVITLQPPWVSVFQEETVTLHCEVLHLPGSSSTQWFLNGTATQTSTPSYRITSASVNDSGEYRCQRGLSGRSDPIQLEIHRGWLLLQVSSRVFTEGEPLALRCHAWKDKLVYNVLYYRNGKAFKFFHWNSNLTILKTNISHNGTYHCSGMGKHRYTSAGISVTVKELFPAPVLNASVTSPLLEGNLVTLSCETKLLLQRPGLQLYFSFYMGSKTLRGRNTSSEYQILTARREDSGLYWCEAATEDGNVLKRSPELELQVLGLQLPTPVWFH

B1: IL6R-BP201/IL6R-L (antibody, human IgG1, kappa, name in EU numbering)
heavy: QVQLQESGPGLVKPSETLSLTCAVSGHSISHDHAWSWVRQPPGEGLEWIGFISYSGITNYNPSLQGRVTISRDNSKNTLYLQMNSLRAEDTAVYYCARSLARTTAMDYWGEGTLVTVSSASTKGPSVFPLAPSSKSTSGGTAALGCLVKDYFPEPVTVSWNSGALTSGVHTFPAVLQSSGLYSLSSVVTVPSSSLGTQTYICNVNHKPSNTKVDKKVEPKSCDKTHTCPPCPAPDLLGDDSVFLFPPKPKDTLMISRTPEVTCVVVDVSHEDGEVKFNWYVDGVEVHNAKTKPREEQYNSTYRVVSVLTVLHQDWLNGKEYKCKVSNKALPRPIEKTISKAKGQPREPQVYTLPPSRDELTKNQVSLTCLVKGFYPSDIAVEWESNGQPENNYKTTPPVLDSDGSFFLYSKLTVDKSRWQQGNVFSCSVMHEALHNHYTQESLSLSP
light: not shown
- relative binding activity [1]: 359
- relative binding activity [2]: 57
- relative binding activity [3]: 186

B2: IL6R-BP130/IL6R-L (antibody, human IgG1, kappa, name in EU numbering)
heavy: QVQLQESGPGLVKPSETLSLTCAVSGHSISHDHAWSWVRQPPGEGLEWIGFISYSGITNYNPSLQGRVTISRDNSKNTLYLQMNSLRAEDTAVYYCARSLARTTAMDYWGEGTLVTVSSASTKGPSVFPLAPSSKSTSGGTAALGCLVKDYFPEPVTVSWNSGALTSGVHTFPAVLQSSGLYSLSSVVTVPSSSLGTQTYICNVNHKPSNTKVDKKVEPKSCDKTHTCPPCPAPDLLGGDSVFLFPPKPKDTLMISRTPEVTCVVVDVSHEDPEVKFNWYVDGVEVHNAKTKPREEQYNSTYRVVSVLTVLHQDWLNGKEYKCKMSNKALPKPIEKTISKAKGQPREPQVYTLPPSRDELTKNQVSLTCLVKGFYPSDIAVEWESNGQPENNYKTTPPVLDSDGSFFLYSKLTVDKSRWQQGNVFSCSVMHEALHNHYTQESLSLSP
light: not shown
- relative binding activity [1]: 224
- relative binding activity [2]: 104

B3: IL6R-BP132/IL6R-L (antibody, human IgG1, kappa, name in EU numbering)
heavy: QVQLQESGPGLVKPSETLSLTCAVSGHSISHDHAWSWVRQPPGEGLEWIGFISYSGITNYNPSLQGRVTISRDNSKNTLYLQMNSLRAEDTAVYYCARSLARTTAMDYWGEGTLVTVSSASTKGPSVFPLAPSSKSTSGGTAALGCLVKDYFPEPVTVSWNSGALTSGVHTFPAVLQSSGLYSLSSVVTVPSSSLGTQTYICNVNHKPSNTKVDKKVEPKSCDKTHTCPPCPAPDLLGGDSVFLFPPKPKDTLMISRTPEVTCVVVDVSHEDPEVKFNWYVDGVEVHNAKTKPREEQYNSTYRVVSVLTVLHQDWLNGKEYKCKVSNAALPKPIEKTISKAKGQPREPQVYTLPPSRDELTKNQVSLTCLVKGFYPSDIAVEWESNGQPENNYKTTPPVLDSDGSFFLYSKLTVDKSRWQQGNVFSCSVMHEALHNHYTQESLSLSP
light: not shown
- relative binding activity [1]: 130
- relative binding activity [2]: 91
- relative binding activity [3]: 150

B4: IL6R-BP146/IL6R-L (antibody, human IgG1, kappa, name in EU numbering)
heavy: QVQLQESGPGLVKPSETLSLTCAVSGHSISHDHAWSWVRQPPGEGLEWIGFISYSGITNYNPSLQGRVTISRDNSKNTLYLQMNSLRAEDTAVYYCARSLARTTAMDYWGEGTLVTVSSASTKGPSVFPLAPSSKSTSGGTAALGCLVKDYFPEPVTVSWNSGALTSGVHTFPAVLQSSGLYSLSSVVTVPSSSLGTQTYICNVNHKPSNTKVDKKVEPKSCDKTHTCPPCPAPEYLGDDSVFLFPPKPKDTLMISRTPEVTCVVVDVSHEDPEVKFNWYVDGVEVHNAKTKPREEQYNSTYRVVSVLTVLHQDWLNGKEYKCKVSNAALPAPIEKTISKAKGQPREPQVYTLPPSRDELTKNQVSLTCLVKGFYPSDIAVEWESNGQPENNYKTTPPVLDSDGSFFLYSKLTVDKSRWQQGNVFSCSVMHEALHNHYTQESLSLSP
light: not shown
- relative binding activity [1]: 203
- relative binding activity [3]: 156

B5: IL6R-BP152/IL6R-L (antibody, human IgG1, kappa, name in EU numbering)
heavy: QVQLQESGPGLVKPSETLSLTCAVSGHSISHDHAWSWVRQPPGEGLEWIGFISYSGITNYNPSLQGRVTISRDNSKNTLYLQMNSLRAEDTAVYYCARSLARTTAMDYWGEGTLVTVSSASTKGPSVFPLAPSSKSTSGGTAALGCLVKDYFPEPVTVSWNSGALTSGVHTFPAVLQSSGLYSLSSVVTVPSSSLGTQTYICNVNHKPSNTKVDKKVEPKSCDKTHTCPPCPAPDYLGDDSVFLFPPKPKDTLMISRTPEVTCVVVDVSHEDPEVKFNWYVDGVEVHNAKTKPREEQDNSTYRVVSVLTVLHQDWLNGKEYKCKVSNAALPRPIEKTISKAKGQPREPQVYTLPPSRDELTKNQVSLTCLVKGFYPSDIAVEWESNGQPENNYKTTPPVLDSDGSFFLYSKLTVDKSRWQQGNVFSCSVMHEALHNHYTQESLSLSP
light: not shown
- relative binding activity [1]: 548
- relative binding activity [2]: 34
- relative binding activity [3]: 178

B6: IL6R-BP176/IL6R-L (antibody, human IgG1, kappa, name in EU numbering)
heavy: QVQLQESGPGLVKPSETLSLTCAVSGHSISHDHAWSWVRQPPGEGLEWIGFISYSGITNYNPSLQGRVTISRDNSKNTLYLQMNSLRAEDTAVYYCARSLARTTAMDYWGEGTLVTVSSASTKGPSVFPLAPSSKSTSGGTAALGCLVKDYFPEPVTVSWNSGALTSGVHTFPAVLQSSGLYSLSSVVTVPSSSLGTQTYICNVNHKPSNTKVDKKVEPKSCDKTHTCPPCPAPDLLGGDSVFLFPPKPKDTLMISRTPEVTCVVVDVSHEDPEVKFNWYVDGVEVHNAKTKPREEQYNSTYRVVSVLTVLHQDWLNGKEYKCKVSNDALPKPIEKTISKAKGQPREPQVYTLPPSRDELTKNQVSLTCLVKGFYPSDIAVEWESNGQPENNYKTTPPVLDSDGSFFLYSKLTVDKSRWQQGNVFSCSVMHEALHNHYTQESLSLSP
light: not shown
- relative binding activity [1]: 128
- relative binding activity [2]: 102
- relative binding activity [3]: 147

B7: IL6R-BP178/IL6R-L (antibody, human IgG1, kappa, name in EU numbering)
heavy: QVQLQESGPGLVKPSETLSLTCAVSGHSISHDHAWSWVRQPPGEGLEWIGFISYSGITNYNPSLQGRVTISRDNSKNTLYLQMNSLRAEDTAVYYCARSLARTTAMDYWGEGTLVTVSSASTKGPSVFPLAPSSKSTSGGTAALGCLVKDYFPEPVTVSWNSGALTSGVHTFPAVLQSSGLYSLSSVVTVPSSSLGTQTYICNVNHKPSNTKVDKKVEPKSCDKTHTCPPCPAPDLLGDDSVFLFPPKPKDTLMISRTPEVTCVVVDVSHEDGEVKFNWYVDGVEVHNAKTKPREEQYNSTYRVVSVLTVLHQDWLNGKEYKCKVSNKALPKPIEKTISKAKGQPREPQVYTLPPSRDELTKNQVSLTCLVKGFYPSDIAVEWESNGQPENNYKTTPPVLDSDGSFFLYSKLTVDKSRWQQGNVFSCSVMHEALHNHYTQESLSLSP
light: not shown
- relative binding activity [1]: 259
- relative binding activity [3]: 179

B8: IL6R-BP182/IL6R-L (antibody, human IgG1, kappa, name in EU numbering)
heavy: QVQLQESGPGLVKPSETLSLTCAVSGHSISHDHAWSWVRQPPGEGLEWIGFISYSGITNYNPSLQGRVTISRDNSKNTLYLQMNSLRAEDTAVYYCARSLARTTAMDYWGEGTLVTVSSASTKGPSVFPLAPSSKSTSGGTAALGCLVKDYFPEPVTVSWNSGALTSGVHTFPAVLQSSGLYSLSSVVTVPSSSLGTQTYICNVNHKPSNTKVDKKVEPKSCDKTHTCPPCPAPDLLGGDSVFLFPPKPKDTLMISRTPEVTCVVVDVSHEDGEVKFNWYVDGVEVHNAKTKPREEQDNSTYRVVSVLTVLHQDWLNGKEYKCKVSNKALPKPIEKTISKAKGQPREPQVYTLPPSRDELTKNQVSLTCLVKGFYPSDIAVEWESNGQPENNYKTTPPVLDSDGSFFLYSKLTVDKSRWQQGNVFSCSVMHEALHNHYTQESLSLSP
light: not shown
- relative binding activity [1]: 139
- relative binding activity [2]: 95
- relative binding activity [3]: 173

B9: IL6R-BP188/IL6R-L (antibody, human IgG1, kappa, name in EU numbering)
heavy: QVQLQESGPGLVKPSETLSLTCAVSGHSISHDHAWSWVRQPPGEGLEWIGFISYSGITNYNPSLQGRVTISRDNSKNTLYLQMNSLRAEDTAVYYCARSLARTTAMDYWGEGTLVTVSSASTKGPSVFPLAPSSKSTSGGTAALGCLVKDYFPEPVTVSWNSGALTSGVHTFPAVLQSSGLYSLSSVVTVPSSSLGTQTYICNVNHKPSNTKVDKKVEPKSCDKTHTCPPCPAPDLLGDDSVFLFPPKPKDTLMISRTPEVTCVVVDVSDEDGEVKFNWYVDGVEVHNAKTKPREEQYNSTYRVVSVLTVLHQDWLNGKEYKCKVSNKALPKPIEKTISKAKGQPREPQVYTLPPSRDELTKNQVSLTCLVKGFYPSDIAVEWESNGQPENNYKTTPPVLDSDGSFFLYSKLTVDKSRWQQGNVFSCSVMHEALHNHYTQESLSLSP
light: not shown
- relative binding activity [2]: 74
- relative binding activity [3]: 179

B10: IL6R-BP193/IL6R-L (antibody, human IgG1, kappa, name in EU numbering)
heavy: QVQLQESGPGLVKPSETLSLTCAVSGHSISHDHAWSWVRQPPGEGLEWIGFISYSGITNYNPSLQGRVTISRDNSKNTLYLQMNSLRAEDTAVYYCARSLARTTAMDYWGEGTLVTVSSASTKGPSVFPLAPSSKSTSGGTAALGCLVKDYFPEPVTVSWNSGALTSGVHTFPAVLQSSGLYSLSSVVTVPSSSLGTQTYICNVNHKPSNTKVDKKVEPKSCDKTHTCPPCPAPDLLGGDSVFLFPPKPKDTLMISRTPEVTCVVVDVSDEDGEVKFNWYVDGVEVHNAKTKPREEQYNSTYRVVSVLTVLHQDWLNGKEYKCKVSNKALPKPIEKTISKAKGQPREPQVYTLPPSRDELTKNQVSLTCLVKGFYPSDIAVEWESNGQPENNYKTTPPVLDSDGSFFLYSKLTVDKSRWQQGNVFSCSVMHEALHNHYTQESLSLSP
light: not shown
- relative binding activity [1]: 154
- relative binding activity [2]: 113
- relative binding activity [3]: 173
